# In article PMC8378251, “Biochemical and Structural Characterisation of a Novel D-Lyxose Isomerase From the Hyperthermophilic Archaeon Thermofilum sp” (Frontiers in Bioengineering and Biotechnology, 2021):
# Biological target: the molecule itself
# Test: SEC; calibrated Superdex 200 pg HiLoad 16/600, 25 mM Tris-HCl pH 8.0, 150 mM NaCl, 1.0 ml/min; apparent molecular mass ~46 kDa
protein,measurement,value
"D-lyxose isomerase from Thermofilum sp. (TsLI) (enzyme, Thermofilum sp. ex4484_79, locus tag B6U94_07925; synthetic gene cloned into pET19b; subunit about 23 kDa; Homodimer; in the crystal the two monomers are joined by a disulfide bond between C22 of each subunit; No removal of the His tag is described; also called T. sp; LI; source: E. coli Rosetta (DE3) pLysS, purified (heat precipitation at 75°C, Ni-NTA, SEC)) MLTKELVKEAREKAIRMLEKACIAITDEEKEKIEVTDFGLGVLYTFGLEILVYVNNERYCAKELVMFPRQICPEHRHPPIGSYLGKQETFRCRWGEVYLYVPGTPTPNPRARIPEEKKRYFTVWHEIVLRPGEQYTIPPNTLHWFQAGDEGAIVSEFSSQSIDEKDIFTDPNVKRIPEIV",stoichiometry N,2
